Results as given in a protein production outcome set (Wang et al. 2014).

Assay: label from the status in PepcDB records

| Sequence | protein production |
| --- | --- |
| MPEASSPASEKSLSRLLLELLWQLAALLIPIFFVTLLPPPAALGVLLGCAAAMTLAARLGWPKTARGLARLMISAAFGLGFSLGRALPAYWDIAAAFTSIFAGLAAVSHLERRLGLVQPSPTPISAWGGNEPQQTPEGQPIRVFNHGEIAMGGPTYCDYLFPDGVLLQGLGSSARFSSDGRYFAAPLPSRQHWGLAILDREQRRLYRCNREHFWELDAFSADTLSGRHSPLVDNGQHQASLNSLLQEAECVELVAVADLWLEPGQWLEALARQDFEESAPHGSHRLHASLALPASLRALEQPLEPLRTPPYRISIDGQPSGLLLRADAPRIWRDDGRALACIAHEQAQPEAACCWLWQADKGWRALPAPWVASHAEPSFYPGPLLSLDRHWLGYSAYLDLAEADHGRYGYRLHSTHSDSETGVGHDRQGCLQVAPLPLTRTQLLQPLDGSGARGESRIQSQPLLGEQRALFSWLTDNPRGLGAYRCQIGTWQLPGCWLLDHRVSDCQRYLALLPWSETLELAPQVVVADLQQQRLIYSPALLAARLLDFRQGRLSLAVLVGRLDPDHASSPLQRFNRPAPAPEHAAAFCTEGPASQPCYERQDWLVIDDQLQPVAPWRLVDRPQAAVAEGDFIQPAPDGRDAAWLFGSETEYADSWLRETSPRLGGHLLTASGCAVGDLAPSLIWSTDARYLALTRLRLGAGDPQQGYRAWQLLLLDVQERSLRIAPDWLRHRPLFQHFDARGLALQLFERDWQAADDPDPGRSLEWALEDLLRLPAEPLREHQGLWLSAADWPQARAWQALRRPAHPAFRAGA | failed |
| MRIDTQEQLVTLLNALFEKVGINLEQVSKLDNYGVMFSVPGTMKPLIATLKTVTTPTNWNNETNLGHYKSADENWLLCLKPAPHSVFCIATVCSLHEKHLEQYIETSEKKQDRRIAAEHGDPEAQYYTAQDCEDKTEALFWYRKAGEQNHYWALYQIALMYEAGEGGLEKDFAQAILWRGKAAEQGSDAAARDLAEMYEEGTADIPQDLTLAIFWYERWLELSPVMRRMIKPKIKSLKAALSQRMNE | failed |
| WTGEDSAEPNSDSAEWIRDMYAKVTEIWQEVMQRRDDDGTLHAACQVQPSATLDAAQPRVTGVVLFRQLAPRAKLDAFFALEGFP | failed |
| SPARPFTVRAPASSANLGPGFDSLGLSVPLYTTLRVTPQDKAEVVPLGTELADTPADESNYVYRAMTLAAKRAGRTLPPARVEIETEVPLARGLGSSAAALVAGVVAGNELLGRPLDDETVLDVTAREEGHPDNVAPALFGGIVVATLDKLGTHY | failed |
| ASIVGSWVEPVPGLEGQVQGIKMEEGGVASSVNMATLVYESWKQEGTKLILTGKSIGNGQTIEFVDTMDIKRLTADSLVLDNQGMEIRYAKQK | not failed |
| MNRNDITILSQQRESVLATNKVLRNTYLLLSLTFIFSALTAYVAFISGARPMNPLLMIVGVYGLMFLTQALRNSVWGLVSVFAFTGFLGYTIGPLLNYYITGFSNGPQIVATALGGTGMIFFALSGYALTTKKDFSYLGGFLFVGVMVALLAMIAGIFIQIPALQLVISAAFVLISSGLILLQTSAIIHEGETNYIMATIGLFVSIYNLFVSLLNLLSAFSGRD | failed |
| MAKSKKIVFTGGGTVGHVTLNLILIPKFLKDGWEVHYIGDKHGVEHEQIDKSGLDVTFHSIATGKLRRYFSWQNMLDVFKVGWGILQSIAIIAKIRPQALFSKGGFVSVPPVIASKLLRVPVYVHESDLSMGLANKIAYKFATTMFTTFEQSKTLVKTRHVGAITKVGMTRFDNSDQLDKIKEQFDEKLKTVLFIGGSAGAKVFN | failed |
| MARSSSFLDNLLTSPSTERYRVGLSVLFLLCVWLVVGSFSQGLPNAMLLMAAAVIGGYMAINIGANDVANNVGPAVGSGALSLGAAVLLAAVFEAAGALIAGGDVVSTIKGGIIDPTSLEDPRAFVWLMTAALLAGALWLNLATWMGAPVSTTHSIVGGVLGAGIAAGGWAIADWAVMGKIAASWVISPVLGGALAALFLFAIKKTVLYRQNLVSSARTFVPWLVAIMAWAFATYLMIKGVKKIVKVDMVEASVIGLIVAGVVFFVMRTLVGRKASTMENSAQGVNTLFTWPLIFAAALLSFAHGANDVANAIGPLAAINDAIQAGGGVVTSAKIPLWVMLVGALGLAVGLMLFGPRLIKTVGSEITELDKTRAFCIALSAALTVILASQLGLPVSSTHIAIGGVFGVGFLREYLKSNYATQLHKIIEQHDPTDQERLKPFLDDFRNASVEEMEKLLKQAKKKKQQVPLSKSERKRLKKIYREEMVKRSHLVKIAAAWIITVPASAIMAAFLFFTLRGLMV | failed |
| MQAAVTVTPARLPELLLGLATVRPVFLWGAPGIGKSSLVRNFADSLGLECVSLLGTQLAPEDLIGVPQIRDGRSVFCPPESIARDEPYCLFLDELNAATPDVQKAFYSLILDRRIGNYELPKGSLVIGAGNRATDNALARPIASALVNRLTHVHLDASAKDWLVWAGENGIHPWITDHLTDRPDHLWSKPPKTEEPFSTPRSWHMLSDALHSFGQDLDEETLKVLAHGTLTPAHATAFCGYVKIVRSRFGIEAILKGEARWPSRIEDRDLLYYLAESFRGRLVKELPASKEHMSANGRQTAYRAKSLLVQLAEISVEVAQSVIASDADGNPLLPAWFLVEAARDMPRLVEARRLEHHHHHH | failed |
| MYLNPKLSYMQFFMGFLFVITFILATFNICSYLVAIVCMALLNLTFVIGAFQQKQYTSFVIALVMSFSFSIVAIVFYIK | failed |
| MEMRFFVLGAGSWGTVFAQMLHENGEEVILWARRKEIVDLINVSHTSPYVEESKITVRATNDLEEIKKEDILVIAIPVQYIREHLLRLPVKPSMVLNLSKGIEIKTGKRVSEIVEEILGCPYAVLSGPSHAEEVAKKLPTAVTLAGENSKELQKRISTEYFRVYTCEDVVGVEIAGALKNVIAIAAGILDGFGGWDNAKAALETRGIYEIARFGMFFGADQKTFMGLAGIGDLMVTCNSRYSRNRRFGELIARGFNPLKLLESSNQVVEGAFTVKAVMKIAKENKIDMPISEEVYRVVYEGKPPLQSMRDLMRRSLKDEFWASVVDSSL | not failed |
| MNIPVEVEVAEVLTDSAATGIFEPGDKLLSIDGTAISTPGDAQTIVRSKAPGDEITISYERNDAESQATITLREHPLEHHHHHH | failed |
| MKSCSRSSSVRLCVRCTGLSLWCCIGHATSVIKSVRNMQSVIGNGYKRSPTGKESRMTPLTSDFLSSSVVFLSAAVIAVPLAQRAGLGSVLGYLLAGIAIGPWGLGLIRDVQAIMHFAEFGVVLLLFLIGLELNPKKLWNLRGPILGLGGAQVVVTTAVLSSVAYLLGVSWQSALVIGMALALSSTAIALRVIEEHGLTRTEAGQSGFAVLLFQDIAVIPMLALLPILAGNSSGDWLNALWMTGGIAALLLGGHFLLNPLFRYIALSGVRELFTVAALLLVVGIALLMQKVGLSMALGTFLAGVILAESEFRHELEIAIDPFKGLLLGLFFISVGMAVDVGLLLVKPLQIMLAVLGLVIVKGLVLYLLARLSGTVAKARSKMAAILSQGGEFAFVIFTAASAEGLLTASQVSFLLVVVSLSMVTTPLLLSAQKYWFARQLNIEENPLTPDVENKEPRVIIVGFGRFGQIVGRLLYANKIKVTILESDASQVRLLRKYGYKVFYGDATNLELLRAAGVEQAEALVVCTDDPEQVITIVELCQQHFPNLKLLARARSRVEAYQLMSLGVQNYTRETFLSALDLGRKALVQLGMHPYQAKRAEEHFHRLDKTMLKELLPQHNEDKQLELRAKEARTELEEIFSREMDSDQLSRRYWEKE | failed |
| MKENLQDRLERENLKIASFGKRVLAFLIDDMVISLIVFIIFYDRLIQAKDLFETTQIVGNFYLGFILLHFSYQAIFTYLYGASLGKILCKIIILDENLLDKPNLIQSCIRSAVRQVSAMAFMLGFAWALSNDLRKAWEDYLARTIVVDVA | failed |
| MKQLLLGRNALFGLLGAIAVLTVVPVATIMPAYAVDDIEGADAPDLTAVQAKIAAKDYKGALAELRDLAQDNQQADVYNLLGFTLRKTGDVTTALTYYNKALELKPDHKAAREYLGELYVETGDMNKAKEQLASLQKLCPAGCEELSDLQKAIDTKVTQ | failed |
| MFVGFLSGLIVMGALLSILLVLLGVMALRVFVRYILPILLILLIIRLIISGIVLLFNPHFWLFIAVVALVLWILGKIRN | failed |
| MQAEGKRKKGDLLIILVVLIIGVGAAVPWLWNQLNPGGGNGEHERIAVITRDGKEVARINLDKVTEPQHFHYEGGIALTIVAENGKIRFLESQCPDQICVKTGSLSKPGDFAACLPAGTIVTIEGDEYE | failed |
